Laboratory results taken from publication PMC10171807 (Science Advances, 2023).
Where “and” joins values, the source holds several entries; their conditions need not be identical. Equal entries are not always repeated. Where two headings read alike, the source gives them in different places.

Columns and labels:
[1] = target: _(MPPΔ3)Skd3_WB (MPP-cleaved Skd3 without the C-terminal hydrophobic residues of the inhibitory sequence, with E455Q) (human); assay: mass photometry
[2] = target: _(MPPΔ3)Skd3_WB (MPP-cleaved Skd3 without the C-terminal hydrophobic residues of the inhibitory sequence, with E455Q) (human); assay: mass photometry; remark: listed apart in the source
[3] = target: FITC-casein (UniProt P02662); assay: fluorescence polarisation
Sequence of FITC-casein (P02662 16-214): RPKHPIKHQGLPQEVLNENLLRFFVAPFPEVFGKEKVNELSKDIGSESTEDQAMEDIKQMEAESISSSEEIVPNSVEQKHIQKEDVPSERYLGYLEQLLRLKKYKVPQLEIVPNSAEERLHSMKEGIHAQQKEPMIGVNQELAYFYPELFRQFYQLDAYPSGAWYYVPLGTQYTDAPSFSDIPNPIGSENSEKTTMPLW

[4] = target: FITC-casein (UniProt P02662); assay: fluorescence polarisation; remark: listed apart in the source
[5] = target: the molecule itself; assay: electron microscopy, 2D class averages
[6] = target: the molecule itself; assay: mass photometry

| Kd [3] | Molecule | stoichiometry N [6] | also measured |
| --- | --- | --- | --- |
|  | _(MPPΔ3)Skd3_WB (MPP-cleaved Skd3 without the C-terminal hydrophobic residues of the inhibitory sequence, with E455Q) (enzyme) |  | stoichiometry N [1]: 12; stoichiometry N [2]: 6 |
| 3.7 µM | _(PARL)Skd3_ARD (isolated ankyrin repeat domain of Skd3) (domain or fragment) VTTGSLGEPQWLRVATGGRPGTSPALFSGRGAATGGRQGGRFDTKCLAAATWGRLPGPEETLPGQDSWNGVPSRAGLGMCALAAALVVHCYSKSPSNKDAALLEAARANNMQEVSRLLSEGADVNAKHRLGWTALMVAAINRNNSVVQVLLAAGADPNLGDDFSSVYKTAKEQGIHSLEDGGQDGASRHITNQWTSALEFRRWLGLPAGVLITREDDFNNRLNNRASFKGCTALHYAVLADDYRTVKELLDGGANPLQRNEMGHTPLDYAREGEVMKLLRTSEAKYQEKQR |  |  |
| 3.4 µM | _(PARL)Skd3 (PARL-cleaved Skd3, human ClpB), wild type (enzyme, UniProt Q9H078 127-707, looked up) YSKSPSNKDAALLEAARANNMQEVSRLLSEGADVNAKHRLGWTALMVAAINRNNSVVQVLLAAGADPNLGDDFSSVYKTAKEQGIHSLEDGGQDGASRHITNQWTSALEFRRWLGLPAGVLITREDDFNNRLNNRASFKGCTALHYAVLADDYRTVKELLDGGANPLQRNEMGHTPLDYAREGEVMKLLRTSEAKYQEKQRKREAEERRRFPLEQRLKEHIIGQESAIATVGAAIRRKENGWYDEEHPLVFLFLGSSGIGKTELAKQTAKYMHKDAKKGFIRLDMSEFQERHEVAKFIGSPPGYVGHEEGGQLTKKLKQCPNAVVLFDEVDKAHPDVLTIMLQLFDEGRLTDGKGKTIDCKDAIFIMTSNVASDEIAQHALQLRQEALEMSRNRIAENLGDVQISDKITISKNFKENVIRPILKAHFRRDEFLGRINEIVYFLPFCHSELIQLVNKELNFWAKRAKQRHNITLLWDREVADVLVDGYNVHYGARSIKHEVERRVVNQLAAAYEQDLLPGGCTLRITVEDSDKQLLKSPELPSPQAEKRLPKLRLEIIDKDSKTRRLDIRAPLHPEKVCNTI |  | Kd [4]: 0.86 µM; stoichiometry N [5]: 6 and 7 |
|  | Skd3_L1,L2GH_WB (_(PARL)Skd3 with the L1GH and L2GH turn loop mutations and E455Q) (enzyme) YSKSPSNKDAALLEAARAGHMQEVSRLLSEGADVNAKHRLGWTALMVAAINGHNSVVQVLLAAGADPNLGDDFSSVYKTAKEQGIHSLEDGGQDGASRHITNQWTSALEFRRWLGLPAGVLITREDDFNNRLNNRASFKGCTALHYAVLADDYRTVKELLDGGANPLQRNEMGHTPLDYAREGEVMKLLRTSEAKYQEKQRKREAEERRRFPLEQRLKEHIIGQESAIATVGAAIRRKENGWYDEEHPLVFLFLGSSGIGKTELAKQTAKYMHKDAKKGFIRLDMSEFQERHEVAKFIGSPPGYVGHEEGGQLTKKLKQCPNAVVLFDQVDKAHPDVLTIMLQLFDEGRLTDGKGKTIDCKDAIFIMTSNVASDEIAQHALQLRQEALEMSRNRIAENLGDVQISDKITISKNFKENVIRPILKAHFRRDEFLGRINEIVYFLPFCHSELIQLVNKELNFWAKRAKQRHNITLLWDREVADVLVDGYNVHYGARSIKHEVERRVVNQLAAAYEQDLLPGGCTLRITVEDSDKQLLKSPELPSPQAEKRLPKLRLEIIDKDSKTRRLDIRAPLHPEKVCNTI | 6 and 12 | ratio of dodecamer relative to hexamer [6]: 0.41 ± 0.12 |
| 3.6 µM | _(PARL)Skd3_WB (PARL-cleaved Skd3 with the Walker B mutation E455Q) (enzyme, human, UniProt Q9H078 127-707, looked up) YSKSPSNKDAALLEAARANNMQEVSRLLSEGADVNAKHRLGWTALMVAAINRNNSVVQVLLAAGADPNLGDDFSSVYKTAKEQGIHSLEDGGQDGASRHITNQWTSALEFRRWLGLPAGVLITREDDFNNRLNNRASFKGCTALHYAVLADDYRTVKELLDGGANPLQRNEMGHTPLDYAREGEVMKLLRTSEAKYQEKQRKREAEERRRFPLEQRLKEHIIGQESAIATVGAAIRRKENGWYDEEHPLVFLFLGSSGIGKTELAKQTAKYMHKDAKKGFIRLDMSEFQERHEVAKFIGSPPGYVGHEEGGQLTKKLKQCPNAVVLFDQVDKAHPDVLTIMLQLFDEGRLTDGKGKTIDCKDAIFIMTSNVASDEIAQHALQLRQEALEMSRNRIAENLGDVQISDKITISKNFKENVIRPILKAHFRRDEFLGRINEIVYFLPFCHSELIQLVNKELNFWAKRAKQRHNITLLWDREVADVLVDGYNVHYGARSIKHEVERRVVNQLAAAYEQDLLPGGCTLRITVEDSDKQLLKSPELPSPQAEKRLPKLRLEIIDKDSKTRRLDIRAPLHPEKVCNTI | 6 |  |
